The target in this test is sodium Nav1.2 voltage-gated channel (expressed in Xenopus oocytes). Put plainly: cell-based or functional assay.

Current flux through the channel, whole cell currents in Xenopus oocytes data for one substance are collected here from US20060057614A1 (priority 2004, published 2006).

With tethered µ-o-conotoxin MrVIA, the current flux through the channel, whole cell currents in Xenopus oocytes is 90%.
